# Values quoted from earlier work as cited in patent US7723472B2, “Extracellular matrix binding chimeric proteins and methods of use thereof” (The Regents of the University of California, priority 2005, dated 2010).
# B1: yCD: Yeast cytosine deaminase (protein, UniProt Q12178 1-158, looked up)
# Cytosine deaminase: MVTGGMASKWDQKGMDIAYEEAALGYKEGGVPIGGCLINNKDGSVLGRGHNMRFQKGSATLHGEISTLENCGRLEGKVYKDTTLYTTLSPCDMCTGAIIMYGIPRCVVGENVNFKSKGEKYLQTRGHEVVVVDDERCKKIMKQFIDERPQDWFEDIGE
# Settings: published value for yCD, Kievit et al. 1999
molecule,measurement,value
B1,Km,800 µM
same,Vmax,68 μM/min/μg enzyme
